Experiment [1] addresses T1, human TROP2-his protein (human, UniProt P09758 27-274).
T1 construct: Biotin-labelled in the ELISAs, unlabelled analyte in Biacore; also called biotin-labeled human TROP2-his protein; biotin human Trop2-his
T1 sequence: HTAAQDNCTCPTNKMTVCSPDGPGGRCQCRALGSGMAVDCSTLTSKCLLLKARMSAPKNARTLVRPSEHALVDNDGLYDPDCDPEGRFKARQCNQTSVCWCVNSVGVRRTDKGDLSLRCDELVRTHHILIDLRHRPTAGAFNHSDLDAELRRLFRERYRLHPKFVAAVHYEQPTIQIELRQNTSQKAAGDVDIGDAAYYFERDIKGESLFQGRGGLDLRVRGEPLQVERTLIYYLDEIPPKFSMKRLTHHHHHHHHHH
As to the kind of experiment: capture ELISA, antibody captured on anti-human IgG Fc coat, biotin human TROP2-his in solution, OD(450-630). The procedure:
(§1) Plates were washed once with wash buffer (PBS+0.05% v/v Tween-20, PBST) and then blocked with 200 μl/well blocking buffer (5% w/v non-fatty milk in PBST) for 2 hours at 37° C. […] Plates containing captured anti-TROP2 antibodies were incubated with biotin-labeled human TROP2-his protein (prepared in house, SEQ ID NO: 67, 56.7 ng/mL in 2.5% w/v non-fatty milk in PBST, 100 μl/well) for 40 minutes at 37° C., washed 4 times, and incubated with streptavidin conjugated HRP (1:10000 dilution in PBST, Jackson Immuno Research, Cat #016-030-084, 100 μl/well) for 40 minutes at 37° C. After a final wash, plates were incubated with 100 μl/well ELISA substrate TMB (Innoreagents, Cat #TMB-S-002) at room temperature. The reaction was stopped in 3-10 minutes at room temperature with 50 μl/well 1M H₂SO₄, and the absorbance of each well was read on a microplate reader using dual wavelength mode with 450 nm for TMB and 630 nm as the reference wavelength. The OD (450-630) values were plotted against antibody concentration. Data was analyzed using Graphpad Prism software and EC₅₀ values were reported.
For the capture ELISA, AffiniPure Goat Anti-Human IgG, Fcγ fragment specific (Jackson Immuno Research, Cat #109-005-098) was used instead of AffiniPure Goat Anti-Mouse IgG, Fcγ fragment specific, 100 μl/well.
For orientation: ELISA stands for enzyme-linked immunosorbent assay.

The target of experiment [2] is T1, human TROP2-his protein. In words: capture ELISA, captured antibody, biotin human TROP2-his in solution, OD(450-630). The method, then:
as §1

The target of experiment [3] is T1, human TROP2-his protein. As to the kind of experiment: competitive ELISA: BM1 coated at 1 ug/mL, antibody premixed with biotin human TROP2-his; blocked: binding of TROP2-his to coated BM1 (self-competition). The procedure: (§2) The mouse anti-TROP2 antibodies were tested for epitope binding in a competitive ELISA assay. […] ELISA plates were washed once with wash buffer (PBS+0.05% v/v Tween-20, PBST) and then blocked with 200 μl blocking buffer (5% w/v non-fatty milk in PBST) for 2 hours at 37° C. While blocking, the anti-TROP2 antibodies or controls were diluted with biotin labeled human TROP2-his protein (SEQ ID NO: 67, 34 ng/mL in 2.5% wA non-fatty milk in PBST), starting at 80 nM with a 5-fold serial dilution, and incubated at room temperature for 40 minutes. After plate washing for 4 times, the antibody/TROP2-his protein mixtures were added to the antibody coated plates, 100 μl per well. After incubation at 37° C. for 40 minutes, plates were washed 4 times again using wash buffer. Then the plates were added and incubated with 100 μl Peroxidase Streptavidin (1:10000 dilution in PBST buffer. Jackson Immunoresearch, Cat #016-030-084) for 40 minutes at 37° C. Plates were washed again using wash buffer. Finally, TMB was added and the reaction was stopped using 1M H₂SO₄. The absorbance of each well was read on a microplate reader using dual wavelength mode with 450 nm for TMB and 630 nm as the reference wavelength, and the OD (450-630) values were plotted against antibody concentration. Data was analyzed using Graphpad Prism software and IC₅₀ values were reported.

Experiment [4] deals with T1, human TROP2-his protein. As to the kind of experiment: competitive ELISA: BM1 coated at 1 ug/mL, antibody premixed with biotin human TROP2-his; blocked: binding of TROP2-his to coated BM1; partial only: OD drops from about 1.45 to a plateau of about 0.8. The procedure:
as §2

Experiment [5] concerns the target T1, human TROP2-his protein. As to the kind of experiment: competitive ELISA: mouse A1E4F7D4 coated at 2 ug/mL, antibody premixed with biotin human TROP2-his; blocked: binding of TROP2-his to coated A1E4F7D4. The procedure: as §2
The target in experiment [6] is T1, human TROP2-his protein. In words: competitive ELISA: mouse A1E4F7D4 coated at 2 ug/mL, antibody premixed with biotin human TROP2-his; blocked: binding of TROP2-his to coated A1E4F7D4; no lower plateau reached at 80 nM. The procedure: as §2
Experiment [7] concerns the target T1, human TROP2-his protein. As to the kind of experiment: competitive ELISA: mouse A1E11A12D1 coated at 2 ug/mL, antibody premixed with biotin human TROP2-his; blocked: binding of TROP2-his to coated A1E11A12D1; no lower plateau reached at 80 nM. The method, then: as §2

Results on four molecules are retold here after patent US20240207432A1 (BIOSION, published 2024).

B1: benchmark (in house prepared sacituzumab) (antibody, human IgG1, kappa, V domains shown)
VH: SVQLQQSGSELKKPGASVKVSCKASGYTFTNYGMNWVKQAPGQGLKWMGWINTYTGEPTYTDDFKGRFAFSLDTSVSTAYLQISSLKADDTAVYFCARGGFGSSYWYFDVWGQGSLVTVSS
VL: DIQLTQSPSSLSASVGDRVSITCKASQDVSIAVAWYQQKPGKAPKLLIYSASYRYTGVPDRFSGSGSGTDFTLTISSLQPEDFAVYYCQQHYITPLTFGAGTKVEIKR
notes: also called BM; BM1
Consider B1, for which the EC50 (usually the concentration giving half of the maximal effect) with human TROP2-his protein [1] amounted to 0.357 nM; with human TROP2-his protein [2] it was 0.487 nM. In addition, the IC50 (as a rule, the point on the concentration scale where inhibition reaches its midpoint) with human TROP2-his protein [3] turned out to be 1.28 nM.

B2: mouse antibody C1B3B12D2 (antibody, V domains shown)
VH: QVQLQQSGPELVRPGTSVKMSCKAAGYTFTKFWIGWVKQRPGHGLEWIGNIYPGGAYINYNENFKGKATLTADTFSSTAYMQLNSLTSADSAIYYCAREGSSGYWGQGTTLTVSS
VL: DIVMTQSPSSLTVTAGEKVTLSCKCSQSLLNSGTQENYLTWYQQKPGQPPKMLIYWASIREPGVPDRFTGSGSGTDFTLTINNVQAEDLAVYYCQHDYSYPFTFGSGTKLEIK
notes: Mouse monoclonal IgG purified from hybridoma supernatant
In the case of B2, in the experiment with human TROP2-his protein [4], the concentration for half-maximal inhibition (IC50) is around 0.6 nM.

B3: mouse antibody A1E11A12D1 (antibody, V domains shown)
VH: QVQLQQSGAELARPGASVKLSCMASGYTFTTYGISWVRQRTGQGLEWIGQIYPGSDYSYCDEDFKGKATLTADKSSSTAYMQLSSLTSEDSAVYFCARASYFDYWGQGTTLTVSS
VL: DILLTQSPAILSVSPGERVSFSCRASQTIGTAIHWYQQRANGSPRLLIKYASESISGIPSRFSGSGSGTDFALSINTVESEDFAYYYCQQSNNWPFTFGGGTKLEIR
notes: as for B2
The molecule B3 gave an IC50 with human TROP2-his protein [5] of 0.102 nM.

B4: mouse antibody A1H3C5H8E12 (antibody, V domains shown)
VH: QVQLQQSGAELVRPGTSVKMSCKAAGYTFTNYWIDWVKQRPGHGLEWIGNIFPGGFYTNYNEKFKGKATLTADTSSSTAYMQLSSLTSEDSAIYYCARGGVFDYWGQGTTLTVSS
VL: DILLTQSPAILSVSPGERVSFSCRASQSIGTSIHWYQQRTNGSPRLLIKYASESISGIPSRFSGSGSGTDFTLSINSVESEDIADYYCQQSNSWPYTFGGGTKLEIK
notes: as for B2
For the molecule B4, the IC50 was found to be 4.09 nM in the experiment with human TROP2-his protein [6] and 9.92 nM with human TROP2-his protein [7].
